“Also recorded” adds a separate entry of the source.
Experiments:
[1] = In vivo pharmacokinetics of rHuADA2, variants and PEGylated forms (Example 9); settings: male BALB/c mice, 7.5 mg/kg intravenous
Description: Fifty four (54) male BALB/c mice were divided into six (6) dosing groups, and were further divided into three (3) groups each for sampling of blood at different time points. Thus, the mice were randomized into eighteen (18) groups total. Mice were weighed prior to the start of the study, and randomized into the 18 groups based upon their body weights. In each sampling group, three groups of (3) mice were used for dosing each test article to prevent oversampling of the blood from the animals. For measurement of baseline ADA2 levels, a blood sample was obtained from 12 randomly chosen mice and plasma was prepared using the anti-coagulant potassium (K3) ethylene diamine tetraacetic acid (K3-EDTA). All blood was collected by submandibular venipuncture.
Each mouse was injected by intravenous tail-vein injection with a 7.5 mg/kg dose of one of six ADA2 test article as set forth in Table 24, i.e. rHuADA2-K374D (K371D by mature numbering), PEG-rHuADA2-K374D (PEG-K371D by mature numbering), rHuADA2-R23E (R20E by mature numbering), PEG-rHuADA2-R23E (PEG-R20E by mature numbering), or WT ADA2 and PEG-WT ADA2.
Blood was collected at designated sampling time points from appropriate groups of mice as indicated below in Table 24 and kept on ice until plasma preparation. Plasma was prepared by centrifuging the blood (500×g for 5 min at 4° C.), transferring the plasma to a fresh tube and immediately freezing at −80° C. until the adenosine deaminase activity assay. Adenosine deaminase activity was determined as described in Example 4. The half-life, or time taken for the activity of ADA2 proteins to be reduced by half, was calculated. Also, total exposure was measured by calculating the Area Under the Concentration-time Curve (AUC).

CT26 syngeneic tumors = assay: Tumor growth inhibition of combination therapy with anti-PD-1 and anti-CTLA4, CT26 peritibial tumor model; type: in vivo, Balb/C mice; settings: study day 10
Description: The murine CT26 syngeneic tumor model was used to compare the antitumor activity of combination therapy using PEGylated ADA2 with checkpoint inhibitors anti-PD-1 and anti-CTLA4 antibodies. CT26 syngeneic tumors were produced by injecting 2×10^5 CT26 cells in 0.05 mL injection volume per animal into the right peritibial muscle of male Balb/C mice. Tumor bearing mice were staged into treatment groups when the average tumor size reached 150 mm^3.
For treatment, animals were randomized into 8 groups (n=8/group) as follows: 1) saline vehicle control, 2) PEG-ADA2-K374D, 3) α-CTLA4 antibody (Clone 9D9, Cat. No. BE0164; BioXCell, West Lebanon, N.H., 4) α-PD-1 antibody (Clone RMP1-14, Cat. No. BE0146; BioXCell, West Lebanon, N.H.), 5) PEG-ADA2-K374D+α-CTLA4; 6) PEG-K374D+α-PD-1; 7) α-CTLA4+α-PD-1, or 8) Triple combo (PEG-ADA2-K374D+α-CTLA4+α-PD-1). PEG-ADA2-K374D was dosed intravenously 3× weekly at 10 mg/kg, α-CTLA4 was dosed intraperiotoneally biweekly at 4 mg/kg, and α-PD-1 was dosed intraperitoneally biweekly at 4 mg/kg. The sequence of dosing in the combination groups was as follows: PEG-ADA2-K374D followed by α-CTLA4 followed by α-PD-1.
Tumor volume was assessed twice weekly via ultrasound imaging using the Vevo2100 (Visual Sonics, Toronto, Canada) to determine tumor growth inhibition (TGI). Animals were anesthetized using light isoflurane anesthesia while the tumor volumes were measured. For tumor measurement, the region of interest was covered in ultrasound gel (Parker Laboratories, Fairfield, N.J.), and the RMV-716 (focal depth=17.5 mm) scan head was positioned directly over the region of interest. While in 2D-Mode, the approximate center of the tumor was located, and subsequently an image (˜150-200 frames) was captured using 3D-mode. Approximately 15-30 frames out of 150-200 frames were analyzed and a tumor volume calculated and expressed in mm^3. Tumor growth Inhibition (TGI) was calculated as described above.

[2] = tested on: KLN205 murine lung cancer tumor; assay: Tumor growth inhibition of combination therapy with anti-PD-1, KLN205 syngeneic tumor model; type: in vivo, DBA/2 mice; settings: study day 14, PEG-K374D 0.3 mg/kg IV biweekly, α-PD-1 2 mg/kg IP biweekly
Description: KLN205 syngeneic tumor models were produced by injecting thirty-two (32) DBA/2 mice with 5×10^5 KLN205 murine lung cancer tumor cells (ATCC CRL-1453), in 0.1 mL injection volume per animal, subcutaneously. Tumor bearing mice were staged into treatment groups when the average tumor size reached approximately 100 mm^3.
For treatment, animals were randomized into 4 groups (n=8/group): 1) saline vehicle control, 2) PEG-K374D, 3) α-PD-1 antibody (Clone RMP1-14, Cat. No. BE0146; BioXCell, West Lebanon, N.H.), or 4) PEG-K374D+α-PD-1. PEG-K374D was dosed intravenously biweekly at 0.3 mg/kg, and α-PD-1 was dosed intraperitoneally biweekly at 2 mg/kg). The sequence of dosing in the combination group was PEG-K374D immediately followed by α-PD-1.
where “Tn” is the average tumor volume for the treatment group at day “n” after the final dose of PEG-K374D and α-PD-1 or control; “T0” is the average tumor volume in that treatment group at day 0, before treatment; “Cn” is the average tumor volume for the corresponding control group at day “n”; and “C0” is the average tumor volume in the control group at day 0, before treatment.

[3] = tested on: CT26 murine colon cancer tumor; assay: Tumor growth inhibition, CT26 syngeneic tumor model; type: in vivo, BALB/c mice
Description: Forty-four (44) male BALB/c mice were inoculated subcutaneously with 5×10^6 murine colon cancer tumor cells (CT26, ATCC CRL-2638) in 0.1 mL injection volume per animal. Tumor volume was determined using digital calipers by caliper measurement of the length (L) and width (W) of the solid tumor masses. Tumor volume (TV) was calculated as: (L×W^2)/2. Tumors were allowed to grow and tumor bearing mice were staged until when the tumors were palpable and measured to be about 50-100 mm^3.
PEGylated rHuADA2-K374D (K371D by mature numbering) was prepared as described in Example 8.A, with minor modifications to generate a preparation in which approximately 100% of the molecules were PEGylated as assessed by SDS-PAGE.
For treatment, animals were randomized into four groups (n=8/group). CT26 tumor bearing mice were then injected intravenously (IV) every other day, at 3 mg/kg body weight, 10 mg/kg body weight or 30 mg/kg body weight doses of PEG-K374D (PEG-K371D by mature numbering) or vehicle control (buffer only) every other day. Tumor volume was measured at day 0 and 8 using caliper measurement as described above. […] One mouse from the vehicle group was excluded due to significant tumor growth inhibition.

[4] = day 8; 3 mg/kg IV every other day
[5] = day 8; 10 mg/kg IV every other day
[6] = day 8; 30 mg/kg IV every other day

B1: R23E: ADA2 variant SEQ ID NO:30 (protein)
chain: IDETRAHLLLKEKMMRLGGELVLNTKEELANERLMTLKIAEMKEAMRTLIFPPSMHFFQAKHLIERSQVFNILRMMPKGAALHLHDIGIVTMDWLVRNVTYRPHCHICFTPRGIMQFRFAHPTPRPSEKCSKWILLEDYRKRVQNVTEFDDSLLRNFTLVTQHPEVIYTNQNVVWSKFETIFFTISGLIHYAPVFRDYVFRSMQEFYEDNVLYMEIRARLLPVYELSGEHHDEEWSVKTYQEVAQKFVETHPEFIGIKIIYSDHRSKDVAVIAESIRMAMGLRIKFPTVVAGFDLVGHEDTGHSLHDYKEALMIPAKDGVKLPYFFHAGETDWQGTSIDRNILDALMLNTTRIGHGFALSKHPAVRTYSWKKDIPIEVCPISNQVLKLVSDLRNHPVATLMATGHPMVISSDDPAMFGAKGLSYDFYEVFMGIGGMKADLRTLKQLAMNSIKYSTLLESEKNTFMEIWKKRWDKFIADVATK
modifications: human ADA2 R20E, mature numbering
[1]
  Half life slow (t1/2): 2.52 h
[1]; vs non-PEGylated WT
  Percent increase in AUC compared to WT ADA2: 19%
  Percent increase in t1/2 compared to WT ADA2: 119%

B2: PEG-K374D: rHuADA2-K374D (SEQ ID NO:20) PEGylated on surface exposed lysines with linear PEG-20K (conjugate)
chain: IDETRAHLLLKEKMMRLGGRLVLNTKEELANERLMTLKIAEMKEAMRTLIFPPSMHFFQAKHLIERSQVFNILRMMPKGAALHLHDIGIVTMDWLVRNVTYRPHCHICFTPRGIMQFRFAHPTPRPSEKCSKWILLEDYRKRVQNVTEFDDSLLRNFTLVTQHPEVIYTNQNVVWSKFETIFFTISGLIHYAPVFRDYVFRSMQEFYEDNVLYMEIRARLLPVYELSGEHHDEEWSVKTYQEVAQKFVETHPEFIGIKIIYSDHRSKDVAVIAESIRMAMGLRIKFPTVVAGFDLVGHEDTGHSLHDYKEALMIPAKDGVKLPYFFHAGETDWQGTSIDRNILDALMLNTTRIGHGFALSKHPAVRTYSWDKDIPIEVCPISNQVLKLVSDLRNHPVATLMATGHPMVISSDDPAMFGAKGLSYDFYEVFMGIGGMKADLRTLKQLAMNSIKYSTLLESEKNTFMEIWKKRWDKFIADVATK
modifications: linear PEG-20K on surface lysines; human ADA2 K371D, mature numbering
CT26 syngeneic tumors; PEG-ADA2-K374D 10 mg/kg IV 3x weekly, α-CTLA4 4 mg/kg IP biweekly, α-PD-1 4 mg/kg IP biweekly, ultrasound
  Average Group Tumor Volume, SD10: 1499.11 mm^3
CT26 syngeneic tumors; PEG-ADA2-K374D 10 mg/kg IV 3x weekly, α-CTLA4 4 mg/kg IP, α-PD-1 4 mg/kg IP biweekly
  Tumor Growth Inhibition: exhibited tumor growth inhibition activity
CT26 syngeneic tumors; compared to vehicle control
  TGI: 5%
CT26 syngeneic tumors; range of tumor volume of all animals in the group
  Volume Range: 1213-1594 mm^3
[2]
  Average Tumor Volume: 264.56 mm^3
  Tumor Growth Inhibition: inhibited tumor growth; also recorded: greater tumor growth inhibition than either α-PD-1 treatment alone or the PEG-K374D+α-PD-1 combination therapy
[2]; vs vehicle
  Tumor Growth Inhibition: 78%
[3]; 3 mg/kg IV every other day; day 8
  Average Tumor Volume: 257.72 mm^3
[3]; 3 mg/kg IV every other day; day 8; vs vehicle
  Tumor Growth Inhibition: 50%
[3]; 10 mg/kg IV every other day; day 8
  Average Tumor Volume: 207.84 mm^3
[3]; 10 mg/kg IV every other day; day 8; vs vehicle
  Tumor Growth Inhibition: 63%
[3]; 30 mg/kg IV every other day; day 8
  Average Tumor Volume: 187.32 mm^3
[3]; 30 mg/kg IV every other day; day 8; vs vehicle
  Tumor Growth Inhibition: 68%
[3]; [4]
  Average Tumor Volume: 257.72 mm^3
  tumor growth inhibition (TGI): 50%
[3]; [5]
  Average Tumor Volume: 207.84 mm^3
  tumor growth inhibition (TGI): 63%
[3]; [6]
  Average Tumor Volume: 187.32 mm^3
  tumor growth inhibition (TGI): 68%

B3: WT ADA2: wild type recombinant human adenosine deaminase 2 with FLAG tag, mature ADA2 SEQ ID NO:5 (protein, listed as Homo sapiens)
chain: IDETRAHLLLKEKMMRLGGRLVLNTKEELANERLMTLKIAEMKEAMRTLIFPPSMHFFQAKHLIERSQVFNILRMMPKGAALHLHDIGIVTMDWLVRNVTYRPHCHICFTPRGIMQFRFAHPTPRPSEKCSKWILLEDYRKRVQNVTEFDDSLLRNFTLVTQHPEVIYTNQNVVWSKFETIFFTISGLIHYAPVFRDYVFRSMQEFYEDNVLYMEIRARLLPVYELSGEHHDEEWSVKTYQEVAQKFVETHPEFIGIKIIYSDHRSKDVAVIAESIRMAMGLRIKFPTVVAGFDLVGHEDTGHSLHDYKEALMIPAKDGVKLPYFFHAGETDWQGTSIDRNILDALMLNTTRIGHGFALSKHPAVRTYSWKKDIPIEVCPISNQVLKLVSDLRNHPVATLMATGHPMVISSDDPAMFGAKGLSYDFYEVFMGIGGMKADLRTLKQLAMNSIKYSTLLESEKNTFMEIWKKRWDKFIADVATK
modifications: FLAG tag; ADA2 mature protein
[1]
  Half life slow (t1/2): 1.15 h

— patent US9969998B2, “Compositions of adenosine deaminase-2 (ADA2), variants thereof and methods of using same” (Halozyme, Inc., priority 2014, dated 2018)
